Here are results for four molecules from US20160152703A1 (PERSEUS PROTEOMICS, published 2016).

In experiment [1] the target is T1, full-length human CDH3 with myc-His tag, forcibly expressed on CHO cells (EXZ1501) (human, UniProt P22223 108-829).
T1 construct: Clones were selected by Western blotting with an anti-c-Myc antibody; also called CDH3 full-length expression CHO cell line (EXZ1501); CHO cells with forcible expression of CDH3; not shown: C-terminal myc-His tag from vector pEF4/myc-HisB
Put plainly: flow cytometry on CHO cells with forcible expression of CDH3. (Flow cytometry measures light scatter and fluorescence of single cells or particles in a stream.)

In experiment [2] the target is T2, human CDH3 (P-cadherin), endogenous, on cancer cells (human, UniProt P22223 108-829).
T2 construct: Endogenous CDH3 on NCI-H358 and other human cancer cells or tissues; also called CDH3 on NCI-H358; CDH3-expressing cancer cell line
Put plainly: FACS competition on a CDH3-expressing cell line; competitor: Alexa488-labeled NITE BP-989 antibody.

The target of experiment [3] is T2, human CDH3 (P-cadherin), endogenous, on …. Put plainly: FACS competition on NCI-H358; competitor: Alexa488-labeled NITE BP-989 antibody; IC50 relative to the antibody without drug, average DAR 0 to 8. As for the experimental part:
The influence of humanization on affinity was confirmed by carrying out a competition test using a flow cytometer (FACS). A test antibody whose dilution series had been prepared, a cell line that expressed CDH3, and a certain amount of Amaxa488-labeled antibody that was competitive with the test antibody were allowed to coexist, and the reaction was then carried out at room temperature for 1 hour. Thereafter, the reaction product was washed with a FACS solution, and FACS measurement was then carried out. […] The obtained IC50 value was defined as an index for affinity.
The influence of the average drug-to-antibody ratio (DAR) of the drug binding to the humanized antibody of the present invention on affinity was confirmed by the same competition test using FACS as that in Example 25. The antibody drug conjugate was prepared in the range of average DAR of 0 to 8 by the method described in Example 15. The DAR was quantified by the method described in Example 16.
As a cell line, NCI-H358 was used. […] By the same FACS competition test as that described in Example 25, each IC50 value was calculated as an index for affinity.

The target is the same in experiment [4]. Put plainly: flow cytometry on NCI-H358 cells, antibody at 10 ug/mL. On the procedure:
A cell line that would be used as a reaction target (an NCI-H358 cell line that had been confirmed to express CDH3 at a high level) was treated with 2 mM EDTA-PBS, so that the cells were removed from a culture plate, and the obtained cells were then suspended in a FACS solution to a cell density of 1×10⁶ cells/mL. This cell suspension was seeded on a 96-well plate, resulting in an amount of 50 μL/well, and the purified chimeric antibody was then added to the plate to result in a concentration of 10 μg/mL, followed by performing a reaction at 4° C. for 60 minutes. Thereafter, the reaction mixture was washed with a FACS solution (150 μL/well) two times, and 4 μg/ml AlexaFlour488-labeled anti-human IgG/goat F(ab′)₂ (Invitrogen) was then added to the resultant. The obtained mixture was reacted at 4° C. for 30 minutes. Thereafter, the cells were washed with a FACS solution two times, and was then subjected to flow cytometry.

T2 sequence (P22223 108-829 limits assumed): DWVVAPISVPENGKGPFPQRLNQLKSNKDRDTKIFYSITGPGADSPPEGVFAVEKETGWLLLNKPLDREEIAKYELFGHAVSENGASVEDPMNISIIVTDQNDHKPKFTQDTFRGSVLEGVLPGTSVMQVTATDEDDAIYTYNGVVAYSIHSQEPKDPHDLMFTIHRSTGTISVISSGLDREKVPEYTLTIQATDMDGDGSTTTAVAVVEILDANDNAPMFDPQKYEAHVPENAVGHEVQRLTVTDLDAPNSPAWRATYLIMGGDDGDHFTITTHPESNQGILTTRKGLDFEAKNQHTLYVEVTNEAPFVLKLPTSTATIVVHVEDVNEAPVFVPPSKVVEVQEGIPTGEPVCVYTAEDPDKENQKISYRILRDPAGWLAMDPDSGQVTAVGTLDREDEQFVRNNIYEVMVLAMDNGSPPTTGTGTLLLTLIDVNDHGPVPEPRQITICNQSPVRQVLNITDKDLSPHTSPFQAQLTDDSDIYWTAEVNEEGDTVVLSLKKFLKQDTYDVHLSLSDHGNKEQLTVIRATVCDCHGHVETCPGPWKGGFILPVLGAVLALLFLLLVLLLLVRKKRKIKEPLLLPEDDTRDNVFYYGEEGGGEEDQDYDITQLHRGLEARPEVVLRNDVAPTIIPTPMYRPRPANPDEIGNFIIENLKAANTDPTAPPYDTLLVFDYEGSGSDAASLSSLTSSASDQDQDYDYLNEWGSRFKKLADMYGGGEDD
T1 sequence (P22223 108-829): as the sequence (P22223 108-829 limits assumed) above

B1: PPAT-076-44Hd (antibody, V domains shown)
VH: QVQLVESGGGVVQPGRSLRLSCAASGFSLTSYGVHWVRQAPGKGLEWVGVIWSGGSTDYADSVKGRFTISKDNSKNTVYLQMNSLRAEDTAVYYCARNSNNGFAYWGQGTLVTVSS
VL: DIQLTQSPSSLSASVGDRVTITCRASQNIYSNLAWYQQKPGKAPKLLVYAAKNLASGVPSRFSGSGSGTDFTLTISSLQPEDFATYYCQHFYDTPWTFGQGTKVEIK
notes: also called anti-CDH3 humanized antibody (human germline framework, reshaped); humanized antibody
Take B1: the binding result in experiment [1] and in experiment [2] was “binds” each time.

B2: PPAT-076-44Hd, to which a drug is bound (DM1 conjugate) (antibody, human IgG1, V domains shown)
VH: QVQLVESGGGVVQPGRSLRLSCAASGFSLTSYGVHWVRQAPGKGLEWVGVIWSGGSTDYADSVKGRFTISKDNSKNTVYLQMNSLRAEDTAVYYCARNSNNGFAYWGQGTLVTVSS
VL: DIQLTQSPSSLSASVGDRVTITCRASQNIYSNLAWYQQKPGKAPKLLVYAAKNLASGVPSRFSGSGSGTDFTLTISSLQPEDFATYYCQHFYDTPWTFGQGTKVEIK
modifications: DM1 bound through Sulfo-SMCC; sites not stated
notes: Human IgG1/kappa; also called CDH3 antibody drug conjugate of PPAT-076-44Hd; drug conjugate of PPAT-076-44Hd
On to B2, for which the binding result in experiment [3] is on record as “binds”.

B3: PPAT-076-44Hb (antibody, V domains shown)
VH: EVQLVESGGGLVQPGGSLRLSCAASGFSLTSYGVHWVRQAPGKGLEWVAVIWSGGSTDYADSVKGRFTISKDNSKNTVYLQMNSLRAEDTAVYYCARNSNNGFAYWGQGTLVTVSS
VL: DIQMTQSPSSLSASVGDRVTITCRASQNIYSNLAWYQQKPGKAPKLLVYAAKNLASGVPSRFSGSGSGTDFTLTISSLQPEDFATYYCQHFYDTPWTFGQGTKVEIK
notes: also called anti-CDH3 humanized antibody (human consensus framework, reshaped)
As for B3, the binding result in experiment [4] and in experiment [1] was “binds” each time.

B4: PPAT-076-44Hb, to which a drug is bound (DM1 conjugate) (antibody, human IgG1, V domains shown)
VH: EVQLVESGGGLVQPGGSLRLSCAASGFSLTSYGVHWVRQAPGKGLEWVAVIWSGGSTDYADSVKGRFTISKDNSKNTVYLQMNSLRAEDTAVYYCARNSNNGFAYWGQGTLVTVSS
VL: DIQMTQSPSSLSASVGDRVTITCRASQNIYSNLAWYQQKPGKAPKLLVYAAKNLASGVPSRFSGSGSGTDFTLTISSLQPEDFATYYCQHFYDTPWTFGQGTKVEIK
modifications: DM1 bound through Sulfo-SMCC; sites not stated
notes: Human IgG1/kappa; also called CDH3 antibody drug conjugate of PPAT-076-44Hb; humanized antibody drug conjugate
As for B4, in experiment [3], the binding result was “binds”.
